In patent US11407819B2, “Compositions and use of a fibrinogen binding motif present in EFB and COA for therapeutics and vaccines against Staphylococcus aureus” (priority 2013, dated 2022):
Entries after “also recorded” stand apart in the source; their conditions may differ.

T1: rEfb-N binding to Fg (Homo sapiens, UniProt P02671+P02675+P02679)
T1 construct: full-length human Fibrinogen (diluted in PBS, Enzyme research); purchased Enzyme research; host or cells: Efb probe made in E. coli
T1 sequence (P02671 20-629 limits assumed): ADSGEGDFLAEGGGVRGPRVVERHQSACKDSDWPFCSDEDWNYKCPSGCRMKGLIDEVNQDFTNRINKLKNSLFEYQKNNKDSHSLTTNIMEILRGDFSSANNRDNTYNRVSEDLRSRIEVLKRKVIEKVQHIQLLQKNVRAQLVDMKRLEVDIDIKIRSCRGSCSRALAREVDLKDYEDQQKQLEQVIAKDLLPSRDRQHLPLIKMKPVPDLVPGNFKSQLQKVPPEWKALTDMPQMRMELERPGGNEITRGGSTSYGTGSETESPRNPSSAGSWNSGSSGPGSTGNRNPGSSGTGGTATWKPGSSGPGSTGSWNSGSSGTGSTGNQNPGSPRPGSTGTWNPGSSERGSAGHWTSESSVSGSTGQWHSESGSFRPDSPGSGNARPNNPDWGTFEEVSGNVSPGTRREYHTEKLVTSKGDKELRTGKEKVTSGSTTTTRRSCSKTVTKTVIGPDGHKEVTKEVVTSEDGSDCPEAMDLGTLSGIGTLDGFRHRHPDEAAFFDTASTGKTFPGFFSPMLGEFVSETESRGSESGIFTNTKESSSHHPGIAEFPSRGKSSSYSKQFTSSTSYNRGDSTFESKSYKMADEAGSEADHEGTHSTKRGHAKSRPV
T1 sequence (P02675 31-491): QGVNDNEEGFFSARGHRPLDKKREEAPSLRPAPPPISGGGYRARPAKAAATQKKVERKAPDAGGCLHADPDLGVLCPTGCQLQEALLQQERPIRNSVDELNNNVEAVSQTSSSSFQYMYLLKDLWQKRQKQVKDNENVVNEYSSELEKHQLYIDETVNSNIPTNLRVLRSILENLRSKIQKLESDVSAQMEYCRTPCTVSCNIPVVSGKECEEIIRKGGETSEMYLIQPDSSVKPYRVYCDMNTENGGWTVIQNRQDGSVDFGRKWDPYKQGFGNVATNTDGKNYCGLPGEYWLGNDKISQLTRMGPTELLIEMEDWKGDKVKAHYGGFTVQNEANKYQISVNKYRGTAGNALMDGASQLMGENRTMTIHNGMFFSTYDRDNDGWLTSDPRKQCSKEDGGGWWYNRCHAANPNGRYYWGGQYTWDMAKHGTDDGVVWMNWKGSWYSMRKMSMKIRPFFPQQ
T1 sequence (P02679 27-453): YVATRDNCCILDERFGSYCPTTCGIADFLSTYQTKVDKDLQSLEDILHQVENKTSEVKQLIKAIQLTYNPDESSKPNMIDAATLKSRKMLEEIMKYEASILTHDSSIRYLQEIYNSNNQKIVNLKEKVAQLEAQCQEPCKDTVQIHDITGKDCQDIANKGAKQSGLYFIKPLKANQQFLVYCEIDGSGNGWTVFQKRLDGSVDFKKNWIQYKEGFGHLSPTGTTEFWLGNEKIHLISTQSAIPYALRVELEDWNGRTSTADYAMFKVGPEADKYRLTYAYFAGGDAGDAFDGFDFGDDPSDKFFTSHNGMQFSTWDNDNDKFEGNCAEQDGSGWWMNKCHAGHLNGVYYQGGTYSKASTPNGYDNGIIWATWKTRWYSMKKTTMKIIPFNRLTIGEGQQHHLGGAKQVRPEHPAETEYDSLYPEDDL

B1: FBE5-A12: VH SEQ ID NO: 73, VL SEQ ID NO: 103 (antibody, V domains shown)
VH: QVQLVESGGGVVQPGRSLRLSCAASGFTFSSYGMHWVRQAPGKGLEWVAVISYDGSNKYYADSVKGRFTISRDNSKNTLYLQMNSLRGEDTAVYYCAREGGWEPNGLDYWGQGTLVTVSS
VL: QAVLTQPPSASGTPGQRVTISCSGSDFNVGTNYVNWYQQLPGSAPKLLIYRNNQRPSGVPDRFSGSKSGTSATLGITGLQTGDEADYYCGTWDSSLSAEVFGGGTKLTVL
B2: FBE5-F9: VH SEQ ID NO: 80, VL SEQ ID NO: 110 (antibody, V domains shown)
VH: QMQLVQSGGGVVQPGRSLRLSCAASGFTFSSYGMHWVRQAPGKGLEWVAVISYDGSNKYYADSVKGRFTISRDNSKNTLYLQMNSLRAEDTAVYYCAKEGDGDYGGVLDYWGQGTLVTVSS
VL: QSVLTQPPSVSAAPGQKVTISCSGSSSNIEKNYVSWYQQLPGTAPKLLIYDNNKRPSGIPDRFSGSKSGTSATLGITGLQTGDEADYYCGTWDSSLSAVVFGGGTKLTVL

Columns and labels:
rEfb-N binding to Fg = target: T1, rEfb-N binding to Fg; assay: Competition ELISA, peptide inhibition of rEfb-N (Efb 30-104) binding to Fg; conditions: increasing concentration of peptides; 2 nM GST fusion protein
Text: Coa-F contains an Efb like fibrinogen binding motif. FIG. 11A is an image of a ClustalW alignment of amino acid sequence from Efb-O (Efb 68-98) and Coa from Newman strain (col-Newman). Sequence similarity was identified at Coa 474-505. Bold letters denote conserved residues and underlined letters represent similar residues. FIGS. 11B and 11C show a comparison of amino acid sequence of Efb-O with Coa 474-505 (FIG. 11B) and Coa 506-532 (FIG. 11C). Large letters in Efb-O indicate the residues important for Fg binding. The red letters show the identical residues and the yellow letters indicate the similar residues. […] Increasing concentration of Coa peptides was incubated with 2 nM GST fusion proteins in Fg-coated microtiter wells. Closed square, sCoa-O; closed circle, sCoa-RI; closed triangle, sEfb-O.
A peptide was synthesized that corresponds to the Coa-O sequence (sCoa-O) and determined its Fg binding activity in a competition ELISA. Microtiter wells were coated with Fg and binding of the recombinant N-terminal segment of Efb (rEfb-N), that harbors the two Fg binding sites, was quantitated in the presence of increasing concentration of different synthetic peptides.
In the case of peptide inhibition assay, various concentration of Efb or Coa peptides were mixed with a fixed concentration of Coa-GST or Efb-GST fusion proteins (5-10 nM) in TBS and the bound GST fusion proteins were detected through incubation with HRP-conjugated rabbit anti-GST polyclonal antibodies (5000× dilution). All proteins were diluted in TBS containing 1% BSA and 0.05% TWEEN® 20 and the ELISA assays were carried out at room temperature.

THP-1 cells = assay: THP-1 cell adherence to immobilized Fg; format: cell-based
Experimental: Cell adherence assay using cell lines—A monocytic cell line THP-1 cell stably expressing αMβ2 was maintained in RPMI1640 supplemented with 10% fetal bovine serum, […] L-glutamine, 100 units/ml penicillin and 100 μg/ml streptomycin. Prior to use, cells were harvested by centrifuge, washed and suspended in RPMI 1640/1% human serum albumin. For cell adherence assays, 48-well plates were coated with 200 μl of Fibrinogen (10 μg/ml) overnight at 4° C. followed by 1 hour at 37° C. before blocking with 1% Polyvinylpyrrolidone (PVP 3600 kDa) for 45 minutes at 37° C. Subsequently, the cells were seeded 2×10^5/well in the presence or absence of Coa or Efb recombinant proteins or peptides and incubated at 37° C. for 25 minutes. Non-adherent cells were removed by washing gently three times with PBS/1% BSA. Adherent cells were quantitated with CyQuant kit according to the manufacturer's manual.

[1] = tested on: Coa-F, Coa-R0, Efb-N, Efb-O, Efb-A binding to Fg; assay: Inhibition by FBE5 scFv-Fc of Coa and Efb fragment binding to immobilized human Fg; parameters: species or system Staphylococcus aureus; conditions: scFv-Fc 0.5, 5, 50 μg/ml; for inhibition of binding to Fg of all proteins tested: Coa-F, Coa-R0, Efb-N, Efb-O 10 nM, Efb-A 750 nM
Experimental: To assess the inhibitory activity of anti-Coa scFv-Fc antibodies, 0.5 μg/well of human Fg was immobilized at 4° C. overnight in 50 mM Carbonate Buffer, pH 9.6. Indicated amounts (50, 5, 0.5 μg/ml) of scFv-Fcs prepared in 2% BSA+1×TBS+0.05% TWEEN® 20 were pre-incubated for 1 hour with a constant concentration of Coa or Efb fragments also prepared in 2% BSA+1×TBS+0.05% TWEEN® 20 at room temperature, 250 rpm shaking. Specifically, Coa-F, Coa-R0, Efb-N and Efb-O were at a fixed concentration of 10 nM; whereas Efb-A was at 750 nM. Fg-binding activity of each protein alone was also checked (no mAb control—0 μg/ml). The Fg-coated plate was blocked with 2% BSA-TBST and washed with PBST. […] Residual bound Coa and Efb fragments were detected with HRP-conjugated (HorseRadish Peroxidase-conjugated) α-GST-tag antibody, except for Efb-N, where an HRP-conjugated α-HIS-tag was used (see FIG. 18). HRP-tagged antibodies were diluted in 2% BSA+1×TBS+0.05% TWEEN® 20 and used at 1:10000 dilution. […] HRP signal was developed using […]™ OPD tablets using manufacturer's guidelines. Binding of Coa and Efb fragments to Fg (no mAb control) was set to 100% and residual binding to Fg of Coa and Efb fragments in the presence of different concentrations of antibodies was calculated and represented.
To assess the inhibitory activity of anti-Coa scFv-Fc antibodies, 0.5 μg/well of human Fg was immobilized at 4° C. overnight in 50 mM Carbonate Buffer, pH 9.6. Indicated amounts (0, 0.5, 5, and 50 μg/ml) of scFv-Fcs were pre-incubated for 1 hour with a constant concentration of Coa or Efb fragments. Specifically, Coa-F, Coa-R0, Efb-N and Efb-O were at a fixed concentration of 10 nM; whereas Efb-A was at 750 nM. Fg-binding activity of each protein alone was also checked (no mAb control—0 μg/ml). The Fg-coated plate was blocked with 2% BSA-PBST and washed with PBST. The pre-incubated mixture of Coa/Efb and anti-Coa scFv-Fc was transferred on the Fg-coated plate. Residual bound Coa and Efb fragments were detected with HRP-conjugated (HorseRadish Peroxidase-conjugated) α-GST-tag antibody, except for Efb-N, where an HRP-conjugated α-HIS-tag was used. Binding of Coa and Efb fragments to Fg (no mAb control) was set to 100% and residual binding to Fg of Coa and Efb fragments in the presence of different concentrations of antibodies was calculated and represented.

Row | Molecule | inhibition of rEfb-N binding to Fg (rEfb-N binding to Fg) | inhibition of THP-1 adherence to immobilized Fg (THP-1 cells; M1/70 20 μg/ml, rEfb 0.2 μM, rCoa 0.5 μM, peptides 0.5 μM each) | reversal of inhibition of THP-1 adherence elicited by rEfb or rCoa (THP-1 cells; peptide 50 μM preincubated with rEfb (0.2 μM) or rCoa (0.2 μM)) | inhibition of CoaF, CoaRO and EfbA binding to Fg [1] | inhibition of EfbN and EfbO binding to Fg [1] | inhibition of binding to Fg of all proteins tested [1]
1 | sCoa-O: synthetic peptide corresponding to Coa-O, residues Coa 474-505 (KYVKYRDAGTGIREYNDGTFGYEARPRFNKPS) | potent inhibitor; also recorded: effectively inhibited rEfb-N binding to Fg | did not inhibit THP-1 adherence | reverses the inhibitory activities | – | – | –
2 | B1 | – | – | – | clear inhibition | less efficient | dose dependent inhibition of all proteins tested
3 | B2 | – | – | – | clear inhibition | less efficient | dose dependent inhibition of all proteins tested
